Source: patent US6365161

Tests used:
[1] = target: human FcγRI (CD64) on cells (human) (UniProt P12314); test: flow cytometry, fluorescein-conjugated antibody on peripheral blood monocytes
[2] = target: soluble fusion protein consisting of the extracellular domain of human FcγRI and human IgM heavy chain (sFcγRI-µ) (human) (UniProt P12314); test: ELISA on captured FcγRI/IgM heavy chain fusion protein, against a nonspecific human IgG1
soluble fusion protein consisting of the extracellular domain of human FcγRI and human IgM heavy chain (sFcγRI-µ) (human), sequence (P12314 other isoform, or with tags, fused parts or gaps limits assumed): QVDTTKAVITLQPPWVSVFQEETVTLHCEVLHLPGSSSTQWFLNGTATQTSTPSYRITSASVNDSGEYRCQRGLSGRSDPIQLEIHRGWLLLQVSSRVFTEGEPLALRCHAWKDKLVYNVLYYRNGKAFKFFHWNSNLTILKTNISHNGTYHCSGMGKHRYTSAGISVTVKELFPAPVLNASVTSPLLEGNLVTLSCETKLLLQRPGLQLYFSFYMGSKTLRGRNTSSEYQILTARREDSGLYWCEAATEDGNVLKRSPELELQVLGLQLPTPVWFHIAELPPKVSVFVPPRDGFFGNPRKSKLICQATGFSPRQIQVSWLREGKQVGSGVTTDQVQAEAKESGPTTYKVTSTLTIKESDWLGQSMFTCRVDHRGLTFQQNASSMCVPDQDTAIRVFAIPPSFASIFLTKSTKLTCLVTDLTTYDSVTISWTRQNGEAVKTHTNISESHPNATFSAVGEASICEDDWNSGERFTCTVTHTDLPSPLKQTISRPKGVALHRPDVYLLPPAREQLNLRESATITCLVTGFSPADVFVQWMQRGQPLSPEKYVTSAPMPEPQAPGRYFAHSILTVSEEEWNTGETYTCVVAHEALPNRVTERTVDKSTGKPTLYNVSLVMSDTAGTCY

human FcγRI (CD64) on cells (human), sequence (P12314 16-374): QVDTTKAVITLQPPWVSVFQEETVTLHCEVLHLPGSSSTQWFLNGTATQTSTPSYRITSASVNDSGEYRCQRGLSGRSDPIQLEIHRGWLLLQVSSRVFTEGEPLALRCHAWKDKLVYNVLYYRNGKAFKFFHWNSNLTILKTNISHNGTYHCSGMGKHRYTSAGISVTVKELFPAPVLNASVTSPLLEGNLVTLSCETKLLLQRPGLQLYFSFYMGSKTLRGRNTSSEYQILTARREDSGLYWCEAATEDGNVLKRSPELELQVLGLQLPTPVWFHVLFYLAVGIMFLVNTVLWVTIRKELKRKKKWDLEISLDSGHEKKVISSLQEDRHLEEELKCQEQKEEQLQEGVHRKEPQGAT

B1: humanized anti-FcγRI antibody H22 (KOL VH/REI Vκ mAb) (antibody, from a related filing, V domains shown)
VH: EVQLVESGGGVVQPGRSLRLSCSSSGFIFSDNYMYWVRQAPGKGLEWVATISDGGSYTYYPDSVKGRFTISRDNSKNTLFLQMDSLRPEDTGVYFCARGYYRYEGAMDYWGQGTPVTVSS
VL: DIQLTQSPSSLSASVGDRVTITCKSSQSVLYSSNQKNYLAWYQQKPGKAPKLLIYWASTRESGVPSRFSGSGSGTDFTFTISSLQPEDIATYYCHQYLSSWTFGQGTKVEIK
Antibody sites per cell (antibody sites per cell) [1]: 10500
percent of binding via the Fv portion [2]: > 95%
